In US20200199241A1 (Chugai, published 2020) one finds relative binding activity data, which are given here for 18 molecules.

Positions count from the first letter of the chain named.

T1: FcγRIIb (human, UniProt P31994 43-217, limits assumed)
T1 construct: also called FcgRIIb; FcγIIB
T1 sequence: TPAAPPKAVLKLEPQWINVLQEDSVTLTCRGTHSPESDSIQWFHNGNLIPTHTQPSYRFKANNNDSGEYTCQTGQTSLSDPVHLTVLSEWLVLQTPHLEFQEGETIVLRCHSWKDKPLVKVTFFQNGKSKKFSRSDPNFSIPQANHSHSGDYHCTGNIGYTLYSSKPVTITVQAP

T2: FcγRIIa type H (human, UniProt P12318 36-217)
T2 construct: also called FcγRIIaH; FcγRIIH
T2 sequence: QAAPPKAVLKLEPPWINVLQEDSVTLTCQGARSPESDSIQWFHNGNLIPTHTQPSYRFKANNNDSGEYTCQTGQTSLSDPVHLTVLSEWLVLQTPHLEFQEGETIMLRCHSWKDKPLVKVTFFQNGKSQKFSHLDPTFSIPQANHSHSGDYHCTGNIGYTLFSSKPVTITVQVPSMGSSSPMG

B1: IL6R-BP148/IL6R-L (antibody, human IgG1)
heavy: QVQLQESGPGLVKPSETLSLTCAVSGHSISHDHAWSWVRQPPGEGLEWIGFISYSGITNYNPSLQGRVTISRDNSKNTLYLQMNSLRAEDTAVYYCARSLARTTAMDYWGEGTLVTVSSASTKGPSVFPLAPSSKSTSGGTAALGCLVKDYFPEPVTVSWNSGALTSGVHTFPAVLQSSGLYSLSSVVTVPSSSLGTQTYICNVNHKPSNTKVDKKVEPKSCDKTHTCPPCPAPDYLGDDSVFLFPPKPKDTLMISRTPEVTCVVVDVSHEDPEVKFNWYVDGVEVHNAKTKPREEQYNSTYRVVSVLTVLHQDWLNGKEYKCKVSNAALPKPIEKTISKAKGQPREPQVYTLPPSRDELTKNQVSLTCLVKGFYPSDIAVEWESNGQPENNYKTTPPVLDSDGSFFLYSKLTVDKSRWQQGNVFSCSVMHEALHNHYTQESLSLSP
light: DIQMTQSPSSLSASVGDRVTITCRASQDISSYLNWYQQKPGKAPKLLIYYTSRLHSGVPSRFSGSGSGTDFTFTISSLQPEDIATYYCQQGNTLPYTFGQGTKVEIK
notes: IgG1; Fc variant of IL6R-B3; copies: 2 + 2
B2: IL6R-BP150/IL6R-L (antibody, human IgG1)
heavy: B1 heavy with D235E, K332R
light: B1 light
notes: as for B1
B3: IL6R-BP199/IL6R-L (antibody, human IgG1)
heavy: B1 heavy with Y236L, D239G, A328D, K332R
light: B1 light
notes: as for B1
B4: IL6R-BP186/IL6R-L (antibody, human IgG1)
heavy: B1 heavy with P273G, Y298D
light: B1 light
notes: as for B1
B5: IL6R-BP179/IL6R-L (antibody, human IgG1)
heavy: B1 heavy with D235E, Y236L, P273G
light: B1 light
notes: as for B1
B6: IL6R-BP183/IL6R-L (antibody, human IgG1)
heavy: B1 heavy with D239G, P273G
light: B1 light
notes: as for B1
B7: IL6R-BP192/IL6R-L (antibody, human IgG1)
heavy: B1 heavy with Y236L, D239G, H270D, P273G, Y298D, A328K
light: B1 light
notes: as for B1
B8: IL6R-BP177/IL6R-L (antibody, human IgG1)
heavy: B1 heavy with P273G, A328D
light: B1 light
notes: as for B1
B9: IL6R-BP184/IL6R-L (antibody, human IgG1)
heavy: B1 heavy with Y236L, D239G, P273G, A328K
light: B1 light
notes: as for B1
B10: IL6R-BP198/IL6R-L (antibody, human IgG1)
heavy: B1 heavy with D239G, H270D, P273G
light: B1 light
notes: as for B1
B11: IL6R-BP185/IL6R-L (antibody, human IgG1)
heavy: B1 heavy with P273G
light: B1 light
notes: as for B1
B12: IL6R-BP187/IL6R-L (antibody, human IgG1)
heavy: B1 heavy with D235E, D239G, P273G
light: B1 light
notes: as for B1
B13: IL6R-BP194/IL6R-L (antibody, human IgG1)
heavy: B1 heavy with H270D, P273G
light: B1 light
notes: as for B1
B14: IL6R-BP196/IL6R-L (antibody, human IgG1)
heavy: B1 heavy with D235E, D239G, H270D, P273G
light: B1 light
notes: as for B1
B15: IL6R-BP149/IL6R-L (antibody, human IgG1)
heavy: B1 heavy with Y298D
light: B1 light
notes: as for B1
B16: IL6R-BP180/IL6R-L (antibody, human IgG1)
heavy: B1 heavy with D235E, Y236L, P273G, A328K
light: B1 light
notes: as for B1
B17: IL6R-BP197/IL6R-L (antibody, human IgG1)
heavy: B1 heavy with H270D, P273G, Y298D, A328D
light: B1 light
notes: as for B1
B18: IL6R-BP189/IL6R-L (antibody, human IgG1)
heavy: B1 heavy with D235E, Y236L, H270D, P273G
light: B1 light
notes: as for B1

The first experiment addresses T1, FcγRIIb. In words: SPR (Biacore), bound amount, IL6R-BF648/IL6R-L = 100. In general terms: Surface plasmon resonance follows binding to a sensor surface in real time, without labels.
As for B1, the relative binding activity is 176 % of control.
Turning to B2, the relative binding activity is 183 % of control.
Still for that read-out and setting: then B3, with 144 % of control; and B4, with 175 % of control.
In the case of B5, the relative binding activity was 177 % of control.
With B6, the relative binding activity was 164 % of control.
The same measure, in the same setting: then B7, with 172 % of control; and B8, with 177 % of control; and B9, with 171 % of control.
Same read-out and setting: then B10, with 164 % of control; and B11, with 179 % of control.
B12: the relative binding activity is 157 % of control.
With B13, the relative binding activity was 178 % of control.
Turning to B14, the relative binding activity was 157 % of control.
B15: the relative binding activity is 173 % of control.
The same measure, in the same setting: then B16, with 179 % of control; and B17, with 179 % of control; and B18, with 177 % of control.

In the next experiment the target is T3, FcγRIa (human, UniProt P12314 16-292, limits assumed).
T3 construct: also called FcgRIa; CD64
T3 sequence (P12314 16-292 limits assumed): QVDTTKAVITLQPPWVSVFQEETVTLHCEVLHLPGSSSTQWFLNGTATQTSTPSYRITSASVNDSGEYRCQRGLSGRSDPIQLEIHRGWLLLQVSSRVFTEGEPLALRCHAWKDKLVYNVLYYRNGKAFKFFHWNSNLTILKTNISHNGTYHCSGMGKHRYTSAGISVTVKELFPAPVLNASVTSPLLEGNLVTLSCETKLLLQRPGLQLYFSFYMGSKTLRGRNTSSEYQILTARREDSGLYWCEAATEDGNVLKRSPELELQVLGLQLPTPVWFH
Described as above.
B1: the relative binding activity is 33 % of control.
For B2, the relative binding activity was 30 % of control.
As for B3, the relative binding activity is 112 % of control.
Same read-out and setting: the result for B4 reads 43 % of control; that for B5, 39 % of control; that for B6, 83 % of control.
For B7, the relative binding activity was 109 % of control.
Take B8: the relative binding activity is 57 % of control.
As for B9, the relative binding activity was 96 % of control.
Consider B10, for which the relative binding activity was 104 % of control.
Same read-out and setting: the result for B11 reads 47 % of control; that for B12, 68 % of control.
Still for that read-out and setting: the result for B13 reads 69 % of control; that for B14, 89 % of control.
Still for that read-out and setting: then B15, with 29 % of control.
Turning to B16, the relative binding activity was 29 % of control.
Consider B17, for which the relative binding activity is 71 % of control.
For the molecule B18, the relative binding activity was 56 % of control.

A further experiment deals with T2, FcγRIIa type H. Described as above.
Turning to B1, the relative binding activity is 462 % of control.
With B2, the relative binding activity is 770 % of control.
As to B3, the relative binding activity was 116 % of control.
As for B4, the relative binding activity was 368 % of control.
The same measure, in the same setting: the result for B5 reads 226 % of control.
Still for that read-out and setting: the result for B6 reads 191 % of control; that for B7, 122 % of control; that for B8, 409 % of control.
As for B9, the relative binding activity is 131 % of control.
As to B10, the relative binding activity is 188 % of control.
Consider B11, for which the relative binding activity was 446 % of control.
For B12, the relative binding activity is 205 % of control.
Consider B13, for which the relative binding activity was 395 % of control.
As for B14, the relative binding activity is 195 % of control.
For the molecule B15, the relative binding activity is 401 % of control.
For B16, the relative binding activity is 203 % of control.
For B17, the relative binding activity was 294 % of control.
Still for that read-out and setting: the result for B18 reads 183 % of control.

The target in a further experiment is T4, FcγRIIIa type V (human, UniProt P08637 17-208, limits assumed).
T4 construct: also called FcγRIIIaV; FcgRIIIaV
T4 sequence (P08637 other isoform, or with tags, fused parts or gaps limits assumed): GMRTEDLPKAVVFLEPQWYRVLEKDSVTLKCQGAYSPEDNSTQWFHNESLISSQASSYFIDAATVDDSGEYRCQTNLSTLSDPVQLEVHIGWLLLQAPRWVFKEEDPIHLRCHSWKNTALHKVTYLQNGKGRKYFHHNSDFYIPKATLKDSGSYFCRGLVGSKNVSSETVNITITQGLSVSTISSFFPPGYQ
Described as above.
Consider B1, for which the relative binding activity was 227 % of control.
In the case of B2, the relative binding activity is 204 % of control.
As to B3, the relative binding activity was 103 % of control.
On to B4, for which the relative binding activity was 143 % of control.
Consider B5, for which the relative binding activity is 125 % of control.
On the same count and under the same terms, then B6, with 113 % of control; and B7, with 118 % of control.
B8: the relative binding activity is 186 % of control.
With B9, the relative binding activity was 106 % of control.
On the same count and under the same terms, the result for B10 reads 157 % of control; that for B11, 191 % of control; that for B12, 124 % of control.
B13: the relative binding activity was 249 % of control.
For the molecule B14, the relative binding activity was 137 % of control.
Consider B15, for which the relative binding activity is 186 % of control.
The same measure, in the same setting: the result for B16 reads 100 % of control.
With B17, the relative binding activity is 206 % of control.
Still for that read-out and setting: the result for B18 reads 141 % of control.
